Experimental data from article PMC7082078 (Cell reports, 2020).
One block for each molecule: values may come before it.

Key:
Assay in all cases: AUC
[1] = molecular target: Xenopus pcdh8.1 full ectodomain (EC1–EC6) (Xenopus)
[2] = molecular target: Xenopus pcdh8.2 (PAPC) full ectodomain (EC1–EC6) (Xenopus)
[3] = molecular target: human pcdh7 EC1–EC4 fragment (human)
[4] = molecular target: human pcdh8 EC5–EC6 fragment (human)
[5] = molecular target: human pcdh9 EC1–EC4 fragment (human)
[6] = molecular target: human pcdh10 EC1–EC3 fragment (human)
[7] = molecular target: human pcdh10 EC1–EC4 fragment (human)
[8] = molecular target: human pcdh10 EC5–EC6 fragment (human)
[9] = molecular target: human pcdh10 full ectodomain (EC1–EC6) (human)
[10] = molecular target: human pcdh11Y full ectodomain (EC1–EC7) (human)
[11] = molecular target: human pcdh12 full ectodomain fragment (EC1–EC6) (human)
[12] = molecular target: human pcdh17 full ectodomain (EC1–EC6) (human)
[13] = molecular target: human pcdh18 full ectodomain (EC1–EC6) (human)
[14] = molecular target: mouse pcdh7 EC1–EC4 fragment (mouse)
[15] = molecular target: mouse pcdh7 full ectodomain (EC1–EC7) (mouse)
[16] = molecular target: the molecule itself

Molecule: Xenopus pcdh8.1 full ectodomain (EC1–EC6) (domain or fragment)
Kd [1]: 3.5 µM | stoichiometry N [1]: 2

Molecule: Xenopus pcdh8.2 (PAPC) full ectodomain (EC1–EC6) (domain or fragment)
stoichiometry N [2]: 2

Molecule: human pcdh7 EC1–EC4 fragment (domain or fragment)
Kd [3]: 2700 nM | stoichiometry N [3]: 2

Molecule: human pcdh10 EC5–EC6 fragment (domain or fragment)
Kd [8]: > 1 mM

Molecule: human pcdh10 full ectodomain (EC1–EC6) (domain or fragment)
Kd [9]: 3.6 µM | stoichiometry N [9]: 2

Molecule: human pcdh11Y full ectodomain (EC1–EC7) (domain or fragment)
Kd [10]: 7.8 µM | stoichiometry N [10]: 2

Molecule: human pcdh12 full ectodomain fragment (EC1–EC6) (domain or fragment)
stoichiometry N [11]: 2

Molecule: mouse pcdh7 EC1–EC4 fragment (domain or fragment)
Kd [14]: 4.1 µM | stoichiometry N [14]: 2

Molecule: mouse pcdh7 full ectodomain (EC1–EC7) (domain or fragment)
Kd [15]: 8.2 µM | stoichiometry N [15]: 2

B1: human pcdh19 full ectodomain (EC1–EC6) (domain or fragment)
chain: LINLKYSVEEEQRAGTVIANVAKDAREAGFALDPRQASAFRVVSNSAPHLVDINPSSGLLVTKQKIDRDLLCRQSPKCIISLEVMSSSMEICVIKVEIKDLNDNAPSFPAAQIELEISEAASPGTRIPLDSAYDPDSGSFGVQTYELTPNELFGLEIKTRGDGSRFAELVVEKSLDRETQSHYSFRITALDGGDPPRLGTVGLSIKVTDSNDNNPVFSESTYAVSVPENSPPNTPVIRLNASDPDEGTNGQVVYSFYGYVNDRTRELFQIDPHSGLVTVTGALDYEEGHVYELDVQAKDLGPNSIPAHCKVTVSVLDTNDNPPVINLLSVNSELVEVSESAPPGYVIALVRVSDRDSGLNGRVQCRLLGNVPFRLQEYESFSTILVDGRLDREQHDQYNLTIQARDGGVPMLQSAKSFTVLITDENDNHPHFSKPYYQVIVQENNTPGAYLLSVSARDPDLGLNGSVSYQIVPSQVRDMPVFTYVSINPNSGDIYALRSFNHEQTKAFEFKVLAKDGGLPSLQSNATVRVIILDVNDNTPVITAPPLINGTAEVYIPRNSGIGYLVTVVKAEDYDEGENGRVTYDMTEGDRGFFEIDQVNGEVRTTRTFGESSKSSYELIVVAHDHGKTSLSASALVLIYLSPALDAQESMGSVNLS
Kd [16]: 480 nM | stoichiometry N [16]: 2

B2: human pcdh9 full ectodomain (EC1–EC7) (domain or fragment)
chain: QELIYTIREELPENVPIGNIPKDLNISHINAATGTSASLVYRLVSKAGDAPLVKVSSSTGEIFTTSNRIDREKLCAGASYAEENECFFELEVVILPNDFFRLIKIKIIVKDTNDNAPMFPSPVINISIPENTLINSRFPIPSATDPDTGFNGVQHYELLNGQSVFGLDIVETPEGEKWPQLIVQQNLDREQKDTYVMKIKVEDGGTPQKSSTAILQVTVSDVNDNRPVFKEGQVEVHIPENAPVGTSVIQLHATDADIGSNAEIRYIFGAQVAPATKRLFALNNTTGLITVQRSLDREETAIHKVTVLASDGSSTPARATVTINVTDVNDNPPNIDLRYIISPINGTVYLSEKDPVNTKIALITVSDKDTDVNGKVICFIEREVPFHLKAVYDNQYLLETSSLLDYEGTKEFSFKIVASDSGKPSLNQTALVRVKLEDENDNPPIFNQPVIELSVSENNRRGLYLTTISATDEDSGKNADIVYQLGPNASFFDLDRKTGVLTASRVFDREEQERFIFTVTARDNGTPPLQSQAAVIVTVLDENDNSPKFTHNHFQFFVSENLPKYSTVGVITVTDADAGENKAVTLSILNDNDNFVLDPYSGVIKSNVSFDREQQSSYTFDVKATDGGQPPRSSTAKVTINVMDVNDNSPVVISPPSNTSFKLVPLSAIPGSVVAEVFAVDVDTGMNAELKYTIVSGNNKGLFRIDPVTGNITLEEKPAPTDVGLHRLVVNISDLGYPKSLHTLVLVFLYVNDTAGNASYIYDLIRRTMETPLDRNIGDSSQPYQNEDYLT
Kd [16]: 2030 nM | stoichiometry N [16]: 2

B3: human pcdh1 full ectodomain (EC1–EC7) (domain or fragment)
chain: TRVVYKVPEEQPPNTLIGSLAADYGFPDVGHLYKLEVGAPYLRVDGKTGDIFTTETSIDREGLRECQNQLPGDPCILEFEVSITDLVQNGSPRLLEGQIEVQDINDNTPNFASPVITLAIPENTNIGSLFPIPLASDRDAGPNGVASYELQAGPEAQELFGLQVAEDQEEKQPQLIVMGNLDRERWDSYDLTIKVQDGGSPPRASSALLRVTVLDTNDNAPKFERPSYEAELSENSPIGHSVIQVKANDSDQGANAEIEYTFHQAPEVVRRLLRLDRNTGLITVQGPVDREDLSTLRFSVLAKDRGTNPKSARAQVVVTVKDMNDNAPTIEIRGIGLVTHQDGMANISEDVAEETAVALVQVSDRDEGENAAVTCVVAGDVPFQLRQASETGSDSKKKYFLQTTTPLDYEKVKDYTIEIVAVDSGNPPLSSTNSLKVQVVDVNDNAPVFTQSVTEVAFPENNKPGEVIAEITASDADSGSNAELVYSLEPEPAAKGLFTISPETGEIQVKTSLDREQRESYELKVVAADRGSPSLQGTATVLVNVLDCNDNDPKFMLSGYNFSVMENMPALSPVGMVTVIDGDKGENAQVQLSVEQDNGDFVIQNGTGTILSSLSFDREQQSTYTFQLKAVDGGVPPRSAYVGVTINVLDENDNAPYITAPSNTSHKLLTPQTRLGETVSQVAAEDFDSGVNAELIYSIAGGNPYGLFQIGSHSGAITLEKEIERRHHGLHRLVVKVSDRGKPPRYGTALVHLYVNETLANRTLLETLLGHSLDTPLDIDIAGDPEYERSKQRGN
Kd [16]: 1200 nM | stoichiometry N [16]: 2

B4: human pcdh1 EC1–EC4 fragment (domain or fragment)
chain: TRVVYKVPEEQPPNTLIGSLAADYGFPDVGHLYKLEVGAPYLRVDGKTGDIFTTETSIDREGLRECQNQLPGDPCILEFEVSITDLVQNGSPRLLEGQIEVQDINDNTPNFASPVITLAIPENTNIGSLFPIPLASDRDAGPNGVASYELQAGPEAQELFGLQVAEDQEEKQPQLIVMGNLDRERWDSYDLTIKVQDGGSPPRASSALLRVTVLDTNDNAPKFERPSYEAELSENSPIGHSVIQVKANDSDQGANAEIEYTFHQAPEVVRRLLRLDRNTGLITVQGPVDREDLSTLRFSVLAKDRGTNPKSARAQVVVTVKDMNDNAPTIEIRGIGLVTHQDGMANISEDVAEETAVALVQVSDRDEGENAAVTCVVAGDVPFQLRQASETGSDSKKKYFLQTTTPLDYEKVKDYTIEIVAVDSGNPPLSSTNSLKVQVVD
Kd [16]: 530 nM | stoichiometry N [16]: 2

The next lines start with the values.

Kd [4]: > 1 mM
Molecule: human pcdh8 EC5–EC6 fragment (domain or fragment)

Kd [5]: 2000 nM | stoichiometry N [5]: 2
Molecule: human pcdh9 EC1–EC4 fragment (domain or fragment)

Kd [6]: 280 µM | stoichiometry N [6]: 2
Molecule: human pcdh10 EC1–EC3 fragment (domain or fragment)

Kd [7]: 680 nM | stoichiometry N [7]: 2
Molecule: human pcdh10 EC1–EC4 fragment (domain or fragment)

Kd [12]: 4.8 µM | stoichiometry N [12]: 2
Molecule: human pcdh17 full ectodomain (EC1–EC6) (domain or fragment)

Kd [13]: 2700 nM | stoichiometry N [13]: 2
Molecule: human pcdh18 full ectodomain (EC1–EC6) (domain or fragment)
